Measured values as given in paper PMC5127641 (2016).

T1: Mcl-1, biotinylated (C-terminal avi-6His) (human, UniProt Q07820 1-350, biotin (enzymatic, BirA))
T1 chain: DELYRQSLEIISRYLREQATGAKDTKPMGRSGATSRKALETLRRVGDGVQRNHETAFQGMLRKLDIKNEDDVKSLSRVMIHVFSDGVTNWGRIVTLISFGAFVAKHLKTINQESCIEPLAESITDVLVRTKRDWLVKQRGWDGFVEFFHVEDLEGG

T2: Bcl-B, biotinylated (C-terminal avi-6His) (human, UniProt Q9HD36 1-204, biotin (enzymatic, BirA))
T2 chain: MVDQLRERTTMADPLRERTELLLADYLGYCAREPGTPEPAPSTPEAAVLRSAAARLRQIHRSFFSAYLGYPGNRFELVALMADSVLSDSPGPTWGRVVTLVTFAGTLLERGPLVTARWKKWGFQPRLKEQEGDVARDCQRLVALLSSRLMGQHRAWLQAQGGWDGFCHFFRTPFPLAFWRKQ

T3: Bcl-w, biotinylated (C-terminal avi-6His) (human, UniProt Q92843 1-193, biotin (enzymatic, BirA))
T3 chain: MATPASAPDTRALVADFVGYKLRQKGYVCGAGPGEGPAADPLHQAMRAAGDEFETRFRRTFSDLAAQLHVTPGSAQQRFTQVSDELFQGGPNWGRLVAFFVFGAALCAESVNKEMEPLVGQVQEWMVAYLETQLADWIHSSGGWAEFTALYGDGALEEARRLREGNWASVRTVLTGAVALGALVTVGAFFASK

T4: Bfl-1, biotinylated (C-terminal avi-6His) (human, UniProt Q16548 1-175, biotin (enzymatic, BirA))
T4 chain: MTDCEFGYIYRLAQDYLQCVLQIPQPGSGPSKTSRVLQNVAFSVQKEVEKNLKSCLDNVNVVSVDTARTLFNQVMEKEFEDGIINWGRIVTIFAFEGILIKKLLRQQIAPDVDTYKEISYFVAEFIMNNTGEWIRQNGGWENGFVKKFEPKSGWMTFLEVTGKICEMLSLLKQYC


Legend:
Assay in all cases: BLI
[1] = biological target: Bcl-2, biotinylated (C-terminal avi-6His) (human, UniProt P10415 1-239, biotin (enzymatic, BirA))
[2] = biological target: Bcl-xL, biotinylated (C-terminal avi-6His) (human, UniProt Q07817-1 1-233, biotin (enzymatic, BirA))
[3] = biological target: T1, Mcl-1, biotinylated (C-terminal …)
[4] = biological target: T2, Bcl-B, biotinylated (C-terminal …)
[5] = biological target: T3, Bcl-w, biotinylated (C-terminal …)
[6] = biological target: T4, Bfl-1, biotinylated (C-terminal …)

Sequence of Bcl-xL, biotinylated (C-terminal avi-6His) (Q07817 1-209): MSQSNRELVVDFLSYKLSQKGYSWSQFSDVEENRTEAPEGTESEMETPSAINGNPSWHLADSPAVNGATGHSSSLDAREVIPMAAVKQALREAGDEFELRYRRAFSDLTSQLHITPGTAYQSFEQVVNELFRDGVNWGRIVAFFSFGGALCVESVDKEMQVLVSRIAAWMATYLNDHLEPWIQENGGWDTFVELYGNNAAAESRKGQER
Sequence of Bcl-2, biotinylated (C-terminal avi-6His) (P10415 1-207): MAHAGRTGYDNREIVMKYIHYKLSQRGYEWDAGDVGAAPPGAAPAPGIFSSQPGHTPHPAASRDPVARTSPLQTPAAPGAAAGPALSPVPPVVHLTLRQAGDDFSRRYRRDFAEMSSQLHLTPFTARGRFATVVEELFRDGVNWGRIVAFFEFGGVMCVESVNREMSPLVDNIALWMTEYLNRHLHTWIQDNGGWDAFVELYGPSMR

Row | Kd [1] | Kd [2] | Kd [3] | Kd [4] | Kd [5] | Kd [6] | Binder
1 | 30 nM | 7 nM | 57 nM | 410 nM | 8 nM | 500 nM | W-CDP03 (Bcl-w-targeting computationally designed protein) (designed binder) ADPKKVFDEAKDRAENNVRRLKQKLEELYKEARKKDLTQEEREKLKEKYKTAMAAAALAAIGDAFNALLKARKLHKNGQVNEQQLEELARRLQELAKEAFQKAKDYANEFEYKLEY
2 | 4 nM |  |  |  |  | > 50000 nM | X-CDP07 (Bcl-xL-targeting computationally designed protein) (designed binder) ADPKKVLDKAKDRAENVVRKLKKELEELYKEARKLDLTQEMRDRIRLAAIAARIAAFGDIFHAIMEALEEARKLKKAGLVNSQQLDELKRRLEELDEEAAQRAEKLGKEFELKLEY
3 | 9 nM | 12000 nM | > 50000 nM | > 50000 nM | 1700 nM | > 50000 nM | 2-CDP06 (Bcl-2-targeting Computationally Designed Protein) (designed binder) MADPKKVLDKAKDEAENRVRELKQKLEELYKEARKLDLTQEMRQELVDKARAASLQAIGDIFYAILRALAEAEKLKKAGLVNSQQLDELKRRLEELAEEARRKAEKLGDEFRLKLEYG
4 |  | 11 nM | 4.6 nM | 100000 nM |  | 2 nM | F-CDP01 (Bfl-1-targeting computationally designed protein) (designed binder) ADPKKVLDKAKDQAENRVRELKQKLEELYKEARKLDLTQEMRKKLQYAAIGAMLAAIGDILNAIMQAKQEADKLKKAGLVNSQQLDELKRRLEELKEEALRKAHDYGSEFYLKLEY
5 |  | 7800 nM |  | 80 nM |  | 2400 nM | B-ECM01 (enriched combinatorial mutant of B-CDP01) (designed binder) ADPKKILDKAKDQVENRVRELKQELERLYKEARKLDLTQEMRRKLHVRYIAAMLKAIAAILNAIAQAENEADKLKKAGLVNSQQLDELRRRLEELTEEAAQKAHDYGREFQLKLEY
6 | 17 nM | 20 nM | 0.46 nM | 8 nM | 2000 nM | 520 nM | B-CDP01 (Bcl-B-targeting computationally designed protein) (designed binder) ADPKKVLDKAKDQAENRVRELKQELERLYKEARKLDLTQEMRRKLEWRYIAAMLKAIGDILNAIAQAENEADKLKKAGLVNSQQLDELRRRLEELAKEAARKAHDYGREFQLKLEY
7 |  | 540 nM | 300 nM | 4000 nM | 3800 nM | 1.1 nM | F-ECM04 (enriched combinatorial mutant of F-CDP01) (designed binder) ADPKKVLDKAKDQAENRVRELKQKLEELYKEARKLDLTQEMRKKLEVAALGAVLAAHGDILNAIMQAKEEADKLKKAGLVNSQQLDELKRRLEELKEEALRKASDYGKEFHLKRRY
